Results published in patent US20260103529A1 (CONFO THERAPEUTICS N V, published 2026).

How the values were obtained:
Assay in all cases: flow cytometry on HEK293T cells transiently expressing Flag-tagged receptor; receptor presence confirmed by anti-Flag detection
[1] = biological target: T1, human MC5R (melanocortin 5 receptor) (human, UniProt P33032 1-325)
T1 construct: whole, on cells; Flag-tagged in flow cytometry; transiently expressed in HEK293T/HEK293 cells

[2] = biological target: T2, human MC1R (melanocortin 1 receptor) (human, UniProt Q01726 1-317)
T2 construct: whole, on cells; Flag-tagged in flow cytometry; transiently expressed in HEK293T/HEK293 cells; also called hMC1R
T2 sequence (Q01726 whole entry): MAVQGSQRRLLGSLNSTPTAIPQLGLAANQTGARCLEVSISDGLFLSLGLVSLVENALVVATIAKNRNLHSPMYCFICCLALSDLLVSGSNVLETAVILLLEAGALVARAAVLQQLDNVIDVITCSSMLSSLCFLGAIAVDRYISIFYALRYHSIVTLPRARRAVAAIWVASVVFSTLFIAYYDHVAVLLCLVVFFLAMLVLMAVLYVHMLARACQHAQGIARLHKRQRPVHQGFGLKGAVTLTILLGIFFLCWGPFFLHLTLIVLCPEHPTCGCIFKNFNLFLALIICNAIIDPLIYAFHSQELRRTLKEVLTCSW

[3] = biological target: T3, human MC2R (melanocortin 2 receptor) (human, UniProt Q01718 1-297)
T3 construct: whole, on cells; Flag-tagged, transiently expressed in HEK293T cells
T3 sequence (Q01718 whole entry): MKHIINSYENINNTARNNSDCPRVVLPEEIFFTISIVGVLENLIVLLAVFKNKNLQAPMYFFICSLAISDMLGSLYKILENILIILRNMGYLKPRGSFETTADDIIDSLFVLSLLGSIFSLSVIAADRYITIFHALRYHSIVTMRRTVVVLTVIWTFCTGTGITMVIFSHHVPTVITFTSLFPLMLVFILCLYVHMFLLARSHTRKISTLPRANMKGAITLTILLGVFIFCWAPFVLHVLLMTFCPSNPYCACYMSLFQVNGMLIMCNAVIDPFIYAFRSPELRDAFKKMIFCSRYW

[4] = biological target: T4, human MC3R (melanocortin 3 receptor) (human, UniProt P41968 1-323)
T4 construct: whole, on cells; Flag-tagged in flow cytometry; transiently expressed in HEK293T/HEK293 cells
T4 sequence (P41968 whole entry): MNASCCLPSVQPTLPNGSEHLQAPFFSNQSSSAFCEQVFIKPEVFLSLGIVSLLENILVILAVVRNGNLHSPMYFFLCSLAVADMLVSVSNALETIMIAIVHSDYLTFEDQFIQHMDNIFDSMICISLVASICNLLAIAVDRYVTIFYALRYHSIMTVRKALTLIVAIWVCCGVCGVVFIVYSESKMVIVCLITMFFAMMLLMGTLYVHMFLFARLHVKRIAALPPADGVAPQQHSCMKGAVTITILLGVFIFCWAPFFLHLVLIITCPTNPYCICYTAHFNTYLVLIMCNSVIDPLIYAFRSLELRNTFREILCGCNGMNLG

T1 sequence (P33032 whole entry): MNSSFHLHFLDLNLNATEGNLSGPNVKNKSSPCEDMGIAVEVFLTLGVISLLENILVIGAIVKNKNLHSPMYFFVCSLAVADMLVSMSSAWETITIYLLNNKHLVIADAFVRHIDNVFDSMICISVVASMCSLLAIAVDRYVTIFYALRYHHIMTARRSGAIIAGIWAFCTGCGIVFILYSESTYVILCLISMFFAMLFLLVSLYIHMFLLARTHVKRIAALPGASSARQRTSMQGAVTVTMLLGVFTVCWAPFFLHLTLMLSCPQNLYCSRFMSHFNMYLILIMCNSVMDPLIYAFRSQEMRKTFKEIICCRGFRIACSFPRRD

binding result [1]: no binding (tested: 1 µM) | binding result [2]: no binding (tested: 1 µM) | binding result [3]: no binding (tested: 1 µM) | binding result [4]: no binding (tested: 1 µM)
B1: pN0162 (VHH)
VHH: QVQLVESGGGLVQPGGSLRLSCAASGSAFSLNVMGWYRQTPGNQRALVAEITKDGSTNYADSAKGRFTISRDNAKNTVHLQMDSLKPEDTAVYYCKARTGRIVRPLDYWGQGTQVTVSS
notes: Agonist nanobody from llama immunisation, purified from E. coli; also called pN162
